The supplement of paper PMC10065799, “High-throughput profiling of sequence recognition by tyrosine kinases and SH2 domains using bacterial peptide display” (eLife, 2023)

Tests used:
MERTK = MERTK (UniProt Q12866); experiment: phosphorylation enrichment, bacterial display (enrichment ratio); higher = better substrate or ligand; peptides without Tyr show the background
EPHB2 = EPHB2 (UniProt P29323); experiment: as above
Fer (mouse) = experiment: as above
Jak2 = Jak2 (UniProt O60674); experiment: as above
Jak2, sequence (O60674 whole entry, looked up): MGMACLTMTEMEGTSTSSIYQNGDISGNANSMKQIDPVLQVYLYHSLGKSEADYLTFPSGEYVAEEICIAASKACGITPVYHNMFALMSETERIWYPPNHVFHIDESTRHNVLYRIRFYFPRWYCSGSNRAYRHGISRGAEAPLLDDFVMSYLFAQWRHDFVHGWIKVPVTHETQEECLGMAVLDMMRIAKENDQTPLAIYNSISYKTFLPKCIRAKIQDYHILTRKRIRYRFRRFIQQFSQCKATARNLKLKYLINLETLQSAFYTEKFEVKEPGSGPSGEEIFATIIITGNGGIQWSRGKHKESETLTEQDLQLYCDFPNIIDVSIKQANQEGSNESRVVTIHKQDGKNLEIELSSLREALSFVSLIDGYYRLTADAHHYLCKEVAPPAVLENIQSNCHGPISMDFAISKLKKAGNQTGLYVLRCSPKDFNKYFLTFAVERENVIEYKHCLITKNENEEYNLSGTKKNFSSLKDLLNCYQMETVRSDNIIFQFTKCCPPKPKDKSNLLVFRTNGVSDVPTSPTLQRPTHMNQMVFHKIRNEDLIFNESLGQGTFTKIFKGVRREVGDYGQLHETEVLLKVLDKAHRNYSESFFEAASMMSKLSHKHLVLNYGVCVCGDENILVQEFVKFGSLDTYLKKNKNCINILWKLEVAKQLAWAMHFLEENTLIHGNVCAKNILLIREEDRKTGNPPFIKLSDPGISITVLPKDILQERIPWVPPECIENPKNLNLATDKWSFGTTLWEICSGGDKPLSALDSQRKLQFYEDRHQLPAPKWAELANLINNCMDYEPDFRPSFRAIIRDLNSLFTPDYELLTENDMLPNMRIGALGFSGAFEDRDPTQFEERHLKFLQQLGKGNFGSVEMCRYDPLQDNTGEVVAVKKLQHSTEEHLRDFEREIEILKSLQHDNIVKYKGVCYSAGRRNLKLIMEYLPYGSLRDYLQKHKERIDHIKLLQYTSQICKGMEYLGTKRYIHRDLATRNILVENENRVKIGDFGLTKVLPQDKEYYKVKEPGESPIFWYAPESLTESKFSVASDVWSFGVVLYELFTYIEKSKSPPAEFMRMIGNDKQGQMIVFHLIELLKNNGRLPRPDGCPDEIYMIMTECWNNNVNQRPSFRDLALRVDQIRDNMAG

c-Abl (mouse) = experiment: as above
c-Src = experiment: as above
FGFR3 = FGFR3 (UniProt P22607); experiment: as above
Fyn = Fyn (UniProt P06241); experiment: as above
Fyn, sequence (P06241 whole entry, looked up): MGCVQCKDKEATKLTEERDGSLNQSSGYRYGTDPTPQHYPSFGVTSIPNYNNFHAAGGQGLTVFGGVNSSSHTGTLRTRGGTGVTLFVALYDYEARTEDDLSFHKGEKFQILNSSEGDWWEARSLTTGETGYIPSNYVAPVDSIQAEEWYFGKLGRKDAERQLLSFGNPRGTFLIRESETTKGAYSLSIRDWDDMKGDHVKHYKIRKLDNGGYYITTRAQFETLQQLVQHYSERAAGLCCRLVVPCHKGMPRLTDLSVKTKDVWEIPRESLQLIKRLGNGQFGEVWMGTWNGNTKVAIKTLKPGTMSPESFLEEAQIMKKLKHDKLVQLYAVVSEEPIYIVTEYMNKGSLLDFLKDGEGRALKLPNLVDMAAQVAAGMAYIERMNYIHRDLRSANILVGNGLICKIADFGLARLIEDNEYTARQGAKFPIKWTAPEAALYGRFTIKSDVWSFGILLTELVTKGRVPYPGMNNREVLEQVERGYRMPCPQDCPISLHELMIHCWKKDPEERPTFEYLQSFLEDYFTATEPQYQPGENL

FGFR1 = FGFR1 (UniProt P11362); experiment: as above
FGFR1, sequence (P11362 whole entry, looked up): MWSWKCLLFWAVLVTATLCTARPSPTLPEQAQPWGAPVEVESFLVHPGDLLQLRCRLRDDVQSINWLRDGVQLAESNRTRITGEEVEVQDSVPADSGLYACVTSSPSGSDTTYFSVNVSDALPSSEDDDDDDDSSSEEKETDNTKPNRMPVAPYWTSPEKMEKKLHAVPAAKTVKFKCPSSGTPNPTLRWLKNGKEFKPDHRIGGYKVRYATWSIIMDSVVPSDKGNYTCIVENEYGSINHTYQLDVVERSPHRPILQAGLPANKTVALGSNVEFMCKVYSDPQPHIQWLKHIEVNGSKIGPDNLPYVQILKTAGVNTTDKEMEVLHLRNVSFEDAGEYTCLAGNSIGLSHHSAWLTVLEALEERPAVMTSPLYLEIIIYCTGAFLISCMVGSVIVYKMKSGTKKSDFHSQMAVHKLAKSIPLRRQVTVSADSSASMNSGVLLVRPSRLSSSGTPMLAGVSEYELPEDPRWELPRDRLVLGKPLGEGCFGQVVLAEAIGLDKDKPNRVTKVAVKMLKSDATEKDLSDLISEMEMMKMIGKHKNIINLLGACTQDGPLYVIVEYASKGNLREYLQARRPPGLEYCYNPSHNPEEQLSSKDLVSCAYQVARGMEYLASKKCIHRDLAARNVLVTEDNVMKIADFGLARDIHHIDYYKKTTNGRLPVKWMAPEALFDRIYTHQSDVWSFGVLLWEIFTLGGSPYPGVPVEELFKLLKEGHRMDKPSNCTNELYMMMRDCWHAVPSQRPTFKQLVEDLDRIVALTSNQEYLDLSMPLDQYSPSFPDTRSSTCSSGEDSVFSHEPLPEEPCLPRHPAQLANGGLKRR

Hck = Hck (UniProt P08631); experiment: as above
Hck, sequence (P08631 whole entry, looked up): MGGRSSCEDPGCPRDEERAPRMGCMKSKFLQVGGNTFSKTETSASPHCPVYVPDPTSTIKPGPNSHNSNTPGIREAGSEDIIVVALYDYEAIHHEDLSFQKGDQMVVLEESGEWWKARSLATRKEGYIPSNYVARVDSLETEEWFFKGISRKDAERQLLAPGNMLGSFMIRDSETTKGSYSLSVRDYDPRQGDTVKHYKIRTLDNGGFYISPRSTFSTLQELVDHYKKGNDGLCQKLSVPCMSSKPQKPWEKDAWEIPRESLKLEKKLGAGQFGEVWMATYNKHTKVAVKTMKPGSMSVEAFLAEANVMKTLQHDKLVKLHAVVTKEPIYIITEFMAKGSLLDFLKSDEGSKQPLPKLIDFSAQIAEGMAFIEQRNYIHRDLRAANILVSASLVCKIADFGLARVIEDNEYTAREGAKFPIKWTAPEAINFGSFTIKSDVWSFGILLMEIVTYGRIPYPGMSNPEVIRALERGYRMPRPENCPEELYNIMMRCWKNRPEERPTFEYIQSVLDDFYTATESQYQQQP

AncSZ = experiment: as above
EPHB1 = EPHB1 (UniProt P54762); experiment: as above
EPHB1, sequence (P54762 whole entry, looked up): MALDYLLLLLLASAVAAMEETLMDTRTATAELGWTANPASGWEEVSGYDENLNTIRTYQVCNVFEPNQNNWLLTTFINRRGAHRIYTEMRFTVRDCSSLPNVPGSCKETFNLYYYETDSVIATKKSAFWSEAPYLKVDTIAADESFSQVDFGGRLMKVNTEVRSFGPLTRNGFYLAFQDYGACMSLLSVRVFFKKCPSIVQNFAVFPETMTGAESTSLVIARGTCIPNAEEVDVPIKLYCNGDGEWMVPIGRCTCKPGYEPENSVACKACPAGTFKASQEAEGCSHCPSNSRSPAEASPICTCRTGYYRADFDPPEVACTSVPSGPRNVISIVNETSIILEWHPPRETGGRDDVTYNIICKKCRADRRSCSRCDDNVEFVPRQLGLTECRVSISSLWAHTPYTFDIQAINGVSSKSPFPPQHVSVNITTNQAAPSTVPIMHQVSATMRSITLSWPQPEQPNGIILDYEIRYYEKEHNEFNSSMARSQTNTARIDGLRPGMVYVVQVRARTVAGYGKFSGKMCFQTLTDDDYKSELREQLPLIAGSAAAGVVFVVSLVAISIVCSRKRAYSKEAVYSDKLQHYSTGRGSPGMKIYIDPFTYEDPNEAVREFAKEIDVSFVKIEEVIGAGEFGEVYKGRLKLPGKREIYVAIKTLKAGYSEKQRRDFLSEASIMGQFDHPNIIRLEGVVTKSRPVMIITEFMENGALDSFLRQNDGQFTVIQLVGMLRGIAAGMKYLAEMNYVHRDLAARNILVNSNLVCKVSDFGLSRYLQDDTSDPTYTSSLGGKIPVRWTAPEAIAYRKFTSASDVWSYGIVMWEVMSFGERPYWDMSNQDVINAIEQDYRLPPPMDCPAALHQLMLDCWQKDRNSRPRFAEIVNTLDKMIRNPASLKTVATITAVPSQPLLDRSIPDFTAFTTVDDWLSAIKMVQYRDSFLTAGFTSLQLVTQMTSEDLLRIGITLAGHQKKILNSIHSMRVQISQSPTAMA

Fes = Fes (UniProt P07332); experiment: as above
Grb2 SH2 = Grb2 SH2 (UniProt P62993); experiment: SH2 binding enrichment of the phosphorylated peptide, bacterial display (enrichment ratio); higher = better substrate or ligand; peptides without Tyr show the background
SHP2-C SH2 = experiment: as above
c-Src SH2 = experiment: as above
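Throughout, for SH2 binding enrichment of the phosphorylated peptide, bacterial display: peptide library displayed on the E. coli surface as eCPX fusions, selected cells deep-sequenced, score is each peptide's frequency after selection divided by its frequency in the input.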
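Throughout, for phosphorylation enrichment, bacterial display: 11-residue human phosphosite peptides and single-mutation variants displayed on the E. coli surface, counted by deep sequencing, each peptide's frequency after selection divided by its frequency in the unselected input library; frequency after pTyr selection over input frequency; kinase dosed for 20-30% of maximal phosphorylation in three min.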

EPHB2, sequence (P29323 whole entry, looked up): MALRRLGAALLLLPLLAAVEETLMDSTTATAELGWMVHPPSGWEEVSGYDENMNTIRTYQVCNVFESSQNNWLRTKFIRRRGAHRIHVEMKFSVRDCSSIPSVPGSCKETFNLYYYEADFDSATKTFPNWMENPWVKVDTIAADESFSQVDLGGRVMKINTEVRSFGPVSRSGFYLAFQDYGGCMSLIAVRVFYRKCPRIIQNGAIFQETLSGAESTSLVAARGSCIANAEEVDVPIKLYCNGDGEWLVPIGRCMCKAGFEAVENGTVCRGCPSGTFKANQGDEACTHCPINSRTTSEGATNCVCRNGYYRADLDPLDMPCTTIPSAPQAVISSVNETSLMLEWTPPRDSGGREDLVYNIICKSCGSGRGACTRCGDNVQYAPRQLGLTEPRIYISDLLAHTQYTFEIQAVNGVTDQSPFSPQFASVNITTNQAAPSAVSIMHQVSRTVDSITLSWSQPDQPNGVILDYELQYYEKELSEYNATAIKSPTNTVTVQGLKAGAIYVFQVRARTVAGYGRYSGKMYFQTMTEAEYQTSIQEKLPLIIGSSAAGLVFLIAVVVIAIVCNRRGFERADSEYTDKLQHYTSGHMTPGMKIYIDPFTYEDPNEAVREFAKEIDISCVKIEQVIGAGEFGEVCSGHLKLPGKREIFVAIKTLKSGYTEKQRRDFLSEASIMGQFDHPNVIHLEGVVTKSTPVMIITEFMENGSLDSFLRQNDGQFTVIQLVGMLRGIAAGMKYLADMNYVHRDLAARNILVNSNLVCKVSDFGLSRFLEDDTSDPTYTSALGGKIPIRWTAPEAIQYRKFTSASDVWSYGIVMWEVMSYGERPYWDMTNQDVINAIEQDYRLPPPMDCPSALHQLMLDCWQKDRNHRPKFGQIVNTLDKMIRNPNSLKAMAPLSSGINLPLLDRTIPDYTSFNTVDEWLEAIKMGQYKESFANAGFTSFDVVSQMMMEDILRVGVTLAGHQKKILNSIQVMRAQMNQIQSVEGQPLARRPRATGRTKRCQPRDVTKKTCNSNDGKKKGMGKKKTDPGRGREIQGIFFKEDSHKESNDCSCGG

Row | Sequence | SH2 binding enrichment (Grb2 SH2) | SH2 binding enrichment (SHP2-C SH2) | SH2 binding enrichment (c-Src SH2) | phosphorylation enrichment (MERTK) | phosphorylation enrichment (EPHB2) | phosphorylation enrichment (Fer (mouse)) | phosphorylation enrichment (Jak2) | phosphorylation enrichment (c-Abl (mouse)) | phosphorylation enrichment (c-Src) | phosphorylation enrichment (FGFR3) | phosphorylation enrichment (Fyn) | phosphorylation enrichment (FGFR1) | phosphorylation enrichment (Hck) | phosphorylation enrichment (AncSZ) | phosphorylation enrichment (EPHB1) | phosphorylation enrichment (Fes)
1 | SERNNYSRVAN [CWC22_Y797] | 0.747 | 5.32 | 1.46 | 0.391 | 0.59 | 0.422 | 0.461 | 0.51 | 0.356 | 0.456 | 0.347 | 0.435 | 0.382 | 0.501 | 0.503 | 0.557
2 | FIPSNYVAEDR [FRK_Y104_YF] | 0.82 | 0.868 | 0.579 | 0.399 | 0.443 | 0.427 | 0.564 | 0.431 | 0.42 | 0.502 | 0.394 | 0.412 | 0.411 | 0.74 | 0.386 | 0.657
3 | LRFEVYGGENE [STOX1_Y610_YF] | 0.723 | 0.842 | 0.536 | 0.454 | 0.855 | 0.483 | 1.29 | 0.925 | 0.5 | 0.774 | 0.539 | 0.621 | 0.5 | 1.15 | 0.56 | 1.55
4 | MAALSYVSEIG [BPIFB2_Y36_K31M] | 0.819 | 0.857 | 0.478 | 0.371 | 0.521 | 0.394 | 0.804 | 0.615 | 0.431 | 0.584 | 0.432 | 0.447 | 0.4 | 0.642 | 0.397 | 0.733
5 | TVINKYQGKLF [HGD_Y249] | 0.838 | 0.811 | 0.504 | 0.398 | 0.436 | 0.372 | 0.545 | 0.513 | 0.449 | 0.401 | 0.414 | 0.473 | 0.447 | 0.514 | 0.336 | 0.596
6 | DDPRRYQKYGY [OAS1_Y362] | 1.05 | 1.3 | 0.894 | 0.368 | 0.544 | 0.403 | 0.507 | 0.592 | 0.438 | 0.446 | 0.426 | 0.414 | 0.499 | 0.598 | 0.368 | 0.591
7 | GVVVPYEPPEV [TP53_Y220_S215G] | 0.614 | 0.636 | 0.575 | 0.387 | 0.559 | 0.563 | 1.25 | 0.695 | 0.352 | 0.581 | 0.366 | 0.39 | 0.41 | 0.892 | 0.493 | 0.905
8 | NFDLDYDSVQP [MYC_Y16_YF] | 0.872 | 0.898 | 0.595 | 0.458 | 0.923 | 0.591 | 1.06 | 0.68 | 0.814 | 0.608 | 0.572 | 0.573 | 0.575 | 2 | 1.28 | 0.974
9 | VFAADYFKLLG [ROR2_Y645_YF] | 0.983 | 0.638 | 0.527 | 0.394 | 0.403 | 0.467 | 7.31 | 0.498 | 0.562 | 4.37 | 0.417 | 7.25 | 0.439 | 0.819 | 0.52 | 0.643
10 | LDLSFYPTSSS [EMD_Y182_YF] | 0.698 | 0.686 | 0.417 | 0.596 | 0.904 | 0.799 | 0.976 | 1.69 | 0.404 | 0.902 | 0.968 | 0.991 | 0.89 | 1.42 | 1.33 | 1.77
11 | GEHSIYSTVNN [CD55_Y266_C267S] | 0.651 | 1.59 | 0.718 | 7.23 | 13 | 14.5 | 0.536 | 6.92 | 7.42 | 0.52 | 10.3 | 0.584 | 10.9 | 0.792 | 9.99 | 1.5
12 | TNGFTYGSSHQ [MANEA_Y331] | 0.74 | 0.493 | 0.434 | 0.441 | 0.31 | 0.514 | 0.413 | 0.412 | 0.404 | 0.39 | 0.492 | 0.525 | 0.443 | 0.566 | 0.444 | 0.576
13 | IYHLSYIHNCE [PDE6B_Y227_L228I] | 1.35 | 1.27 | 0.819 | 4.22 | 0.724 | 1.67 | 1.18 | 4.3 | 2.65 | 2.16 | 2.78 | 2.65 | 1.81 | 1.3 | 0.783 | 1.38
14 | LRYDVYGGENE [STOX1_Y610_E608D] | 0.925 | 0.675 | 0.875 | 1.18 | 1.57 | 1.03 | 2.78 | 2.15 | 1.94 | 1.29 | 1.48 | 1.09 | 1.41 | 2.74 | 1.82 | 3.02
15 | PSQRRYLYYYS [PTEN_Y174_V175L] | 0.84 | 1.48 | 1.06 | 4.1 | 0.697 | 0.92 | 1.99 | 0.659 | 0.64 | 0.937 | 1.04 | 0.873 | 0.737 | 1.77 | 0.616 | 1.4
16 | PGVNYYFQVSA | 1.04 | 0.629 | 0.561 | 0.734 | 1.49 | 0.907 | 2.79 | 1.48 | 0.692 | 3.16 | 0.611 | 2.98 | 1.03 | 2.15 | 1.61 | 2.14
17 | GPQGVYSNKLV [PTPN14_Y506] | 0.654 | 0.724 | 0.536 | 0.519 | 0.502 | 0.407 | 0.544 | 0.537 | 0.636 | 0.51 | 0.633 | 0.472 | 0.588 | 0.568 | 0.417 | 0.642
18 | QDEHGYIFRCF [HSPB1_Y133_S135F] | 0.702 | 0.469 | 0.566 | 0.524 | 0.762 | 0.793 | 1.6 | 1.19 | 0.661 | 1.31 | 0.924 | 0.912 | 0.735 | 1.75 | 1.27 | 2.15
19 | LKRCQYVTEKV [ALDOA_Y204] | 0.742 | 0.654 | 0.53 | 0.672 | 0.89 | 0.794 | 2.26 | 1.24 | 0.796 | 0.924 | 0.823 | 1.11 | 0.689 | 1.59 | 1.9 | 1.75
20 | DCLASYLDKVR [KRT10_Y160_R156C] | 0.932 | 0.711 | 0.55 | 0.4 | 0.659 | 0.402 | 0.842 | 0.706 | 0.419 | 0.659 | 0.422 | 0.56 | 0.452 | 0.886 | 0.55 | 0.953
21 | MPPHIYAITDT [MYH9_Y151] | 0.965 | 0.664 | 7.82 | 4.75 | 0.514 | 0.679 | 0.68 | 0.922 | 2.26 | 0.514 | 1.73 | 0.59 | 1.22 | 0.709 | 1.4 | 0.936
22 | EKSREYDRLYE [PIK3R1_Y463] | 0.966 | 0.612 | 16.9 | 0.597 | 0.68 | 0.711 | 0.828 | 0.938 | 0.587 | 0.706 | 0.708 | 0.61 | 0.944 | 1.32 | 0.663 | 1.09
23 | IYRASYYRRGD [LTK_Y676] | 0.728 | 0.471 | 0.439 | 0.763 | 0.422 | 0.453 | 0.621 | 0.927 | 0.666 | 0.555 | 0.594 | 0.481 | 1.2 | 0.821 | 0.398 | 0.757

Second part, led by results:

Row | SH2 binding enrichment (Grb2 SH2) | SH2 binding enrichment (SHP2-C SH2) | SH2 binding enrichment (c-Src SH2) | Sequence | phosphorylation enrichment (MERTK) | phosphorylation enrichment (EPHB2) | phosphorylation enrichment (Fer (mouse)) | phosphorylation enrichment (Jak2) | phosphorylation enrichment (c-Abl (mouse)) | phosphorylation enrichment (c-Src) | phosphorylation enrichment (FGFR3) | phosphorylation enrichment (Fyn) | phosphorylation enrichment (FGFR1) | phosphorylation enrichment (Hck) | phosphorylation enrichment (AncSZ) | phosphorylation enrichment (EPHB1) | phosphorylation enrichment (Fes)
24 | 0.717 | 0.82 | 0.406 | DAVAVYHGKIS [SH2D1A_Y7] | 0.369 | 0.442 | 0.379 | 0.603 | 0.51 | 0.348 | 0.492 | 0.442 | 0.388 | 0.533 | 0.593 | 0.395 | 0.744
25 | 0.746 | 0.801 | 0.653 | LSGVIYVILGK [PMP22_Y153_R157G] | 0.771 | 0.588 | 0.754 | 2.72 | 1.87 | 0.796 | 0.977 | 0.828 | 0.867 | 0.885 | 1.73 | 0.93 | 2.88
26 | 0.809 | 0.852 | 0.523 | VKFLGYPPPEI [KDR_Y357_A352V_YF] | 0.402 | 0.618 | 0.427 | 0.744 | 0.688 | 0.371 | 0.555 | 0.443 | 0.398 | 0.369 | 0.692 | 0.452 | 0.974
27 | 0.731 | 0.643 | 1.07 | VHNLDYYKMTT [FGFR3_Y647_K650M] | 0.492 | 0.895 | 0.522 | 5.87 | 0.433 | 0.496 | 8.96 | 0.439 | 12.1 | 0.547 | 1.33 | 1.17 | 0.608
28 | 0.74 | 0.594 | 0.492 | PIQLFYTRRNT [GHR_Y86] | 0.691 | 0.775 | 0.913 | 0.713 | 0.738 | 0.919 | 0.884 | 0.938 | 0.982 | 0.957 | 1.18 | 0.766 | 1.13
29 | 0.569 | 0.498 | 0.413 | NDKLCYEVSSP [CDH13_Y66_R65C] | 0.394 | 0.724 | 0.883 | 1 | 0.837 | 0.596 | 0.876 | 0.562 | 0.514 | 0.548 | 1.52 | 0.677 | 1.53
30 | 0.816 | 0.806 | 0.502 | ILTLKYPIEHG [ACTA1_Y71] | 0.391 | 0.485 | 0.391 | 0.584 | 0.57 | 0.376 | 0.592 | 0.437 | 0.47 | 0.453 | 0.716 | 0.476 | 0.78
31 | 1.01 | 0.86 | 0.445 | ASMAKYFASGI [ACADSB_Y372_E376G_YF] | 0.407 | 0.517 | 0.374 | 0.566 | 0.574 | 0.386 | 0.441 | 0.386 | 0.424 | 0.404 | 0.544 | 0.339 | 0.79
32 | 1.16 | 2.32 | 8.55 | CTTIHYNYMCD [TP53_Y234_N239D] | 0.426 | 0.515 | 0.465 | 0.625 | 0.545 | 0.422 | 0.631 | 0.405 | 0.57 | 0.469 | 0.796 | 0.647 | 0.898
33 | 0.778 | 0.669 | 0.42 | VDDQIYFFRKP [PBRM1_Y1289_E1287Q_YF] | 1.42 | 0.785 | 0.728 | 1.61 | 3.29 | 4.67 | 3.47 | 6.38 | 3.43 | 5.8 | 2.49 | 0.961 | 1.55
